Reference: publication PMC6175577, “BRCT domains of the DNA damage checkpoint proteins TOPBP1/Rad4 display distinct specificities for phosphopeptide ligands” (eLife, 2018)

How the values were obtained:
Experiment in all cases: fluorescence polarisation
[1] = molecular target: T1, Treslin pT969 fluorescein-labelled phosphopeptide; settings: chain shown with the change; point at 40 µM protein; parent: est. 70; read off a plot
T1 chain: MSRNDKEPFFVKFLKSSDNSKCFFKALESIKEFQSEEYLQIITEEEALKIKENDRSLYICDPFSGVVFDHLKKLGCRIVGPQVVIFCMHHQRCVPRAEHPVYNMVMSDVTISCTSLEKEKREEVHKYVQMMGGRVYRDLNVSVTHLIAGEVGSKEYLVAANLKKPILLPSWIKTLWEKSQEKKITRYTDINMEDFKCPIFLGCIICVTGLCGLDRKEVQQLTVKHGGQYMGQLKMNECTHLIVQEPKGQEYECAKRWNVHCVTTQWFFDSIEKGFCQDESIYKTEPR

[2] = molecular target: T2, Treslin pT969 fluorescein-labelled phosphopeptide; settings: for response: chain shown with the change, point at 40 µM protein, parent: est. 70, read off a plot
T2 chain: GYGLTKSVAETPVHKQIS

[3] = molecular target: T3, Treslin pS1001 fluorescein-labelled phosphopeptide; settings: for response: chain shown with the change, point at 40 µM protein, parent: est. 83, read off a plot; for Kd: chain shown with the change;, parent: 0.60 ± 0.03 µM
T3 chain: GYGDIGVVEESPEKGDEI

[4] = molecular target: T4, Mdb1 pT113 fluorescein-labelled phosphopeptide; settings: chain shown with the change; point at 40 µM protein; parent: est. 140; read off a plot
T4 chain: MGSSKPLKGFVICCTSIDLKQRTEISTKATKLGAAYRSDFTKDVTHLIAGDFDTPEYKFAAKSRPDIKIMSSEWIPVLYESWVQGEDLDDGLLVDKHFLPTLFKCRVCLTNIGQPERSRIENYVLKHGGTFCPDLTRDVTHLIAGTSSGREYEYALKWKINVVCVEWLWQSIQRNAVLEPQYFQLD

[5] = molecular target: T5, Treslin pS1001 fluorescein-labelled phosphopeptide; settings: chain shown with the change; point at 40 µM protein; parent: est. 83; read off a plot
T5 chain: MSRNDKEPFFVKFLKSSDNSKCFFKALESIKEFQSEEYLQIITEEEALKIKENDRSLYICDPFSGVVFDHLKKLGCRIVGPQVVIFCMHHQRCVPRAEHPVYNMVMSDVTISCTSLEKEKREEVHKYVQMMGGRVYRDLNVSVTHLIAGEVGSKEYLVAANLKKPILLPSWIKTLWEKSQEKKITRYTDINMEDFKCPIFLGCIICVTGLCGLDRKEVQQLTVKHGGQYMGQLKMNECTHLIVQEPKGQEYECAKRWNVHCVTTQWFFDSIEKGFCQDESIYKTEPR

[6] = molecular target: T6, Mdb1 pT113 fluorescein-labelled phosphopeptide; settings: chain shown with the change; point at 40 µM protein; parent: est. 140; read off a plot
T6 chain: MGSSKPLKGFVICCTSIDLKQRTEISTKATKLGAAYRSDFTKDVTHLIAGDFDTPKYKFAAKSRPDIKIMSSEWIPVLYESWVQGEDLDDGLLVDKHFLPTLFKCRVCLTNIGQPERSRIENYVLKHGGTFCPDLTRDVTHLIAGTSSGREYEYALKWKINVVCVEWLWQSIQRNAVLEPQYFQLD

Binder | response [2] [millidegrees] | response [3] [millidegrees] | Kd [3] [nM] | also measured
GYGLTKSVAETPVHKQIS |  |  |  | response [1]: 0 millidegrees
TOPBP1-BRCT0,1,2 segment, wild type (recombinant, fluorescence polarisation) K250E (protein) MSRNDKEPFFVKFLKSSDNSKCFFKALESIKEFQSEEYLQIITEEEALKIKENDRSLYICDPFSGVVFDHLKKLGCRIVGPQVVIFCMHHQRCVPRAEHPVYNMVMSDVTISCTSLEKEKREEVHKYVQMMGGRVYRDLNVSVTHLIAGEVGSKKYLVAANLKKPILLPSWIKTLWEKSQEKKITRYTDINMEDFKCPIFLGCIICVTGLCGLDRKEVQQLTVKHGGQYMGQLKMNECTHLIVQEPKGQEYECAKRWNVHCVTTQWFFDSIEKGFCQDESIYKTEPR | 30 | 41 | 350 | 
TOPBP1-BRCT0,1,2 segment, wild type (recombinant, fluorescence polarisation) K155E (protein) MSRNDKEPFFVKFLKSSDNSKCFFKALESIKEFQSEEYLQIITEEEALKIKENDRSLYICDPFSGVVFDHLKKLGCRIVGPQVVIFCMHHQRCVPRAEHPVYNMVMSDVTISCTSLEKEKREEVHKYVQMMGGRVYRDLNVSVTHLIAGEVGSKEYLVAANLKKPILLPSWIKTLWEKSQEKKITRYTDINMEDFKCPIFLGCIICVTGLCGLDRKEVQQLTVKHGGQYMGQLKMNECTHLIVQEPKGQKYECAKRWNVHCVTTQWFFDSIEKGFCQDESIYKTEPR | 46 | 68 | 730 | Kd ([2]; chain shown with the change;, parent: 0.94 ± 0.06 µM): 1000 nM
GYGGVMTVPNTPQKPNLQ [Rad4-BRCT1,2 segment, wild type (recombinant, fluorescence polarisation), P32372 K56E; K151E] |  |  |  | response [4]: 30 millidegrees
GYGDIGVVEESPEKGDEI |  |  |  | response [5]: 12 millidegrees
GYGGVMTVPNTPQKPNLQ [Rad4-BRCT1,2 segment, wild type (recombinant, fluorescence polarisation), P32372 K151E] |  |  |  | response [6]: 92 millidegrees
